Publication PMC3973293, “A tRNA splicing operon: Archease endows RtcB with dual GTP/ATP cofactor specificity and accelerates RNA ligation” (Nucleic Acids Research, 2014)
Substitutions are numbered along the chain they refer to. In names and notes the source's numbering stands.

Legend:
[1] = substrate: Nc1nc2c(ncn2[C@@H]2O[C@H](COP(=O)(O)OP(=O)(O)OP(=O)(O)O)[C@@H](O)[C@H]2O)c(=O)[nH]1; experiment: single-turnover RNA ligation, FAM-RNA gel assay; format: biochemical, Pyrococcus horikoshii; conditions: apparent Km, RtcB 5 uM, MnCl2 0.25 mM, NaCl 300 mM, Bis-Tris pH 7.0, 70 °C, 10-nt RNA substrates 1.0 uM each, varied: cofactor
[2] = substrate: Nc1ncnc2c1ncn2[C@@H]1O[C@H](COP(=O)(O)OP(=O)(O)OP(=O)(O)O)[C@@H](O)[C@H]1O; experiment: single-turnover RNA ligation, FAM-RNA gel assay; format: biochemical, Pyrococcus horikoshii; conditions: apparent Km, Archease 800 nM, RtcB 5 uM, MnCl2 0.25 mM, NaCl 300 mM, Bis-Tris pH 7.0, 70 °C, 10-nt RNA substrates 1.0 uM each, varied: cofactor
Excerpt: single-turnover RNA ligation, FAM-RNA gel assay on RtcB·Archease | the ATP KM* value for K480A RtcB was nearly identical to the ATP KM* value

[3] = substrate: Nc1nc2c(ncn2[C@H]2C[C@H](O)[C@@H](COP(=O)(O)OP(=O)(O)OP(=O)(O)O)O2)c(=O)[nH]1; experiment: single-turnover RNA ligation, FAM-RNA gel assay; format: biochemical, Pyrococcus horikoshii; conditions: apparent Km, Archease 100 nM, RtcB 5 uM, MnCl2 0.25 mM, NaCl 300 mM, Bis-Tris pH 7.0, 70 °C, 10-nt RNA substrates 1.0 uM each, varied: cofactor
[4] = substrate: O=P(O)(O)OP(=O)(O)OP(=O)(O)OC[C@H]1O[C@@H](n2cnc3c(O)ncnc32)[C@H](O)[C@@H]1O; experiment: single-turnover RNA ligation, FAM-RNA gel assay; format: biochemical, Pyrococcus horikoshii; conditions: apparent Km, Archease 100 nM, RtcB 5 uM, MnCl2 0.25 mM, NaCl 300 mM, Bis-Tris pH 7.0, 70 °C, 10-nt RNA substrates 1.0 uM each, varied: cofactor
[5] = substrate: Nc1ncnc2c1ncn2[C@@H]1O[C@H](COP(=O)(O)OP(=O)(O)OP(=O)(O)O)[C@@H](O)[C@H]1O; experiment: single-turnover RNA ligation, FAM-RNA gel assay; format: biochemical, Pyrococcus horikoshii; conditions: apparent Km, Archease 800 nM, RtcB 5 uM, MnCl2 0.25 mM, NaCl 300 mM, Bis-Tris pH 7.0, 70 °C, 10-nt RNA substrates 1.0 uM each, varied: cofactor; remark: listed apart in the source
[6] = target: T1, Native Pyrococcus horikoshii RtcB (Pyrococcus horikoshii) (UniProt O59245)
T1 sequence: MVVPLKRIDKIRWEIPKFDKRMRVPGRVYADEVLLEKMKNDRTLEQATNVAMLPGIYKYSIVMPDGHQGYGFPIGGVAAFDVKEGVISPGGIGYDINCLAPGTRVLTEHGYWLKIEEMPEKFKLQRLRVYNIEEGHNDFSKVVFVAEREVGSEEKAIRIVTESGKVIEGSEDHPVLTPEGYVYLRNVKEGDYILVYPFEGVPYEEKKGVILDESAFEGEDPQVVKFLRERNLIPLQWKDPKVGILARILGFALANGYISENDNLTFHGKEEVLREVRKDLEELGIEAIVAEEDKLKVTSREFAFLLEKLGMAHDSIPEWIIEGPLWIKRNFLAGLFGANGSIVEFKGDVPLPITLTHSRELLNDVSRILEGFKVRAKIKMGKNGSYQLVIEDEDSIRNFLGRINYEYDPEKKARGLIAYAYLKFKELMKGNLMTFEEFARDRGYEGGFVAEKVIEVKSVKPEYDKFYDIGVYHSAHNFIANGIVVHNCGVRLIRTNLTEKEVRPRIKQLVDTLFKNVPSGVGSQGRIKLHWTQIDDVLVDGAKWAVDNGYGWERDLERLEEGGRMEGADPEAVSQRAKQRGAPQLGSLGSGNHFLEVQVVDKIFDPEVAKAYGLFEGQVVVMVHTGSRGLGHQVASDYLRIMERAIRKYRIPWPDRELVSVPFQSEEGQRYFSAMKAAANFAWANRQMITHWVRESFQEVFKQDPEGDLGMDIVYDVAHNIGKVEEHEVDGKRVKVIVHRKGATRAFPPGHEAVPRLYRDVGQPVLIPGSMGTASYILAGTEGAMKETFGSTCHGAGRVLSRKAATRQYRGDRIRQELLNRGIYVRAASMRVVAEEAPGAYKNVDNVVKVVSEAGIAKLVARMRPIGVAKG

B1: P. horikoshii RtcB (Pyrococcus horikoshii OT3) (protein)
chain 1: MVVPLKRIDKIRWEIPKFDKRMRVPGRVYADEVLLEKMKNDRTLEQATNVAMLPGIYKYSIVMPDGHQGYGFPIGGVAAFDVKEGVISPGGIGYDIN
chain 2: CGVRLIRTNLTEKEVRPRIKQLVDTLFKNVPSGVGSQGRIKLHWTQIDDVLVDGAKWAVDNGYGWERDLERLEEGGRMEGADPEAVSQRAKQRGAPQLGSLGSGNHFLEVQVVDKIFDPEVAKAYGLFEGQVVVMVHTGSRGLGHQVASDYLRIMERAIRKYRIPWPDRELVSVPFQSEEGQRYFSAMKAAANFAWANRQMITHWVRESFQEVFKQDPEGDLGMDIVYDVAHNIGKVEEHEVDGKRVKVIVHRKGATRAFPPGHEAVPRLYRDVGQPVLIPGSMGTASYILAGTEGAMKETFGSTCHGAGRVLSRKAATRQYRGDRIRQELLNRGIYVRAASMRVVAEEAPGAYKNVDNVVKVVSEAGIAKLVARMRPIGVAKG
notes: intein-free mature ligase
Work on B1 yielded a Km [1] of 2.4 ± 0.2 µM.

B2: RtcB·Archease (Pyrococcus horikoshii OT3; K870A) (protein)
chain 1: B1 chain 1
chain 2: B1 chain 2 with K383A
notes: Archease untagged as described, codon-optimised, Leu inserted after ATG, E. coli BL21, 16 kDa, mostly monomer; with Protein archease
Binder B2 has a Km [2] of 3.0 ± 1.0 µM.

B3: RtcB·Archease (Pyrococcus horikoshii OT3) (protein)
chain 1: B1 chain 1
chain 2: B1 chain 2
notes: as for B2
Binder B3 has a Km [3] of 1.8 ± 0.1 µM, a Km [4] of 1.9 ± 0.4 µM and a Km ([1]; Archease 100 nM) of 1.5 ± 0.3 µM. It also gave a Km [5] of 3.4 ± 1.1 µM.

B4: Pyrococcus horikoshii Archease (natural protein)
chain: MLKKWEHYEHTADIGIRGYGDSLEEAFEAVAIALFDVMVNVNKVEKKEVREIEVEAEDLEALLYSFLEELLVIHDIEGLVFRDFEVKIERVNGKYRLRAKAYGEKLDLKKHEPKEEVKAITYHDMKIERLPNGKWMAQLVPDI
For B4, the RNA ligation product formed by 5 μM RtcB with Archease titrated in (activation levels off at 100 nM Archease; 92 nM product without Archease), 70°C, 30 min [6] was 316 nM.
